Test results reported in PMC7305028.
Read-outs that look alike come from different tables or passages of the source.

Tests used:
Test in all cases: native MS
FapF [1] = molecular target: FapF
FapF [2] = molecular target: FapF; remark: listed apart in the source
FapF [3] = molecular target: FapF; remark: listed apart in the source

Substance	stoichiometry N (per FapF trimer) (FapF [1])	stoichiometry N (FapF [1])	stoichiometry N (FapF [2])	stoichiometry N (FapF [3])
FapC (natural protein)	1	–	–	–
FapD (natural protein)	1	–	–	–
FapE (natural protein)	1	–	–	–
FapF (natural protein)	–	3	3	3
